Here are results for eleven molecules from article PMC7613929 (Nature microbiology, 2022).

“And” between values parts separate entries of the source, which are not always exact repeats. Identical values can stand only once. Ends that are not written are not given here.

One data set deals with T1, FtsA (Escherichia coli, UniProt P0ABH0).
T1 construct: made in house; host or cells: E. coli C41(DE3)
Nature of the data set: SPR, EcFtsN^1-32 truncations and mutations binding to immobilised FtsA. The following applies: SPR equilibrium response; peptide 1:2 dilution series from 20 μM; mean ± SEM (n ≥ 2 for each construct); asterisk: maximum response fixed during fitting, approximate values; ND: not determinable; read-out: SPR K^eqd. As to the method: SPR was performed using a Biacore T200 using CM5-sensor chips (Cytiva). Reference control and analyte channels were equilibrated in binding buffer. […] After reference and buffer signal correction, sensogram data were fitted using Prism 8.0 (GraphPad). Equilibrium response (Req) data were fitted to a single-site interaction model to determine Kd: (1) Req=(CRmax/C+Kd)+B, where C is the analyte concentration and Rmax is the maximum response at saturation and B is the background resonance.

Data set [1] relates to FtsA cysteine mutant E. coli strains. Description: In vivo cysteine cross-linking, Western blot. The following applies: Western blot against 3x HA-tag. In kind it is cell-based, Escherichia coli. As for the experimental part:
Strains were grown to exponential phase (OD600 = 0.2-0.4) in LB from overnight cultures, and 0.9375 OD units harvested using centrifugation at 4°C. Cells were kept on ice for the duration of the experiment, unless stated otherwise. Cells were washed in 500 μl PBS and resuspended in 50 μl PBS. 1.25 μl DMSO or cross-linker (dBBr: Dibromobimane, BMOE: Bismaleimidoethane, BMB: 1,4-bismaleimidobutane or BMH: Bismaleimidohexane) in DMSO (20 mM stock) were added. Samples were incubated for 10 min and quenched by adding 1 μl 2-ME (1.43 M stock in MPW). Cells were resuspended in 50 μl lysis buffer [1 mM EDTA (pH 7.4), 14.3 mM 2-ME, cOmplete EDTA-free Protease Inhibitor Cocktail (Roche), 0.25 U/μl Benzonase (Merck) and 0.5 U/μl ReadyLyse Lysozyme (Lucigen) in B-PER (ThermoFisher)]. Samples were incubated at RT for 5 min. 50 μl of 2x SDS sample loading buffer supplemented with 3 % v/v 2-ME were added. Samples were incubated at 95°C for 5 min, and the equivalent of 0.1875 OD units of cells was analysed by SDS-PAGE. Western blotting was performed using a Trans-Blot turbo (BioRad) with the corresponding Midi 0.2 μm PVDF transfer pack. Blots were run at 25 V and 2.5 A for 7 min. Membranes were blocked in PBS + 5 % milk for 30-40 min, washed in PBS and incubated with anti-HA-Peroxidase antibody (Roche 12013819001) (1/1000 in PBST + 5 % milk) at RT for 1-1.5h. Membranes were washed thoroughly with PBST, developed using the ECL Prime Western blotting detection kit (Amersham/Cytiva) and imaged on a Gel DocTM XR+ (Bio-Rad). Presented images were contrast-adjusted for display purposes.
Background: In western blotting, separated proteins are transferred to a membrane and probed.

The target in data set [2] is Vibrio maritimus FtsA residues 1-396 (VmFtsA^1-396) (Vibrio maritimus). Description: crystal structure; co-crystallisation of VmFtsA^1-396 at 3 mg/ml with 2 mM ATP and 0.353 mM VmFtsN^1-29; crystallisation at pH 8.5.
In data set [3] the target is VmFtsN^1-29-C-Atto 495 (Vibrio maritimus). Nature of the data set: fluorescence polarisation; C-terminally truncated FtsA titrated (1:2 dilution series) into 20 nM Atto 495-labelled FtsN peptide; binding buffer with 0.05 % v/v Tween-20, RT; two-step model.
Data set [4] deals with Vibrio maritimus FtsA residues 1-396 (VmFtsA^1-396) (Vibrio maritimus). Description: SPR; Biacore T200, FtsA immobilised on CM5 chip by amide coupling (2000-7800 RU), FtsN peptides injected 120 s in 1:2 dilution series; binding buffer (50 mM HEPES/KOH, 100 mM KAc, 5 mM MgAc2, pH 7.7); equilibrium response fitted to a single-site model. In general terms: SPR reads the build-up and loss of mass on a sensor chip optically.

Data set [5] deals with T2, Vibrio maritimus FtsA residues 1-396 (VmFtsA^1-396) (Vibrio maritimus).
T2 chain: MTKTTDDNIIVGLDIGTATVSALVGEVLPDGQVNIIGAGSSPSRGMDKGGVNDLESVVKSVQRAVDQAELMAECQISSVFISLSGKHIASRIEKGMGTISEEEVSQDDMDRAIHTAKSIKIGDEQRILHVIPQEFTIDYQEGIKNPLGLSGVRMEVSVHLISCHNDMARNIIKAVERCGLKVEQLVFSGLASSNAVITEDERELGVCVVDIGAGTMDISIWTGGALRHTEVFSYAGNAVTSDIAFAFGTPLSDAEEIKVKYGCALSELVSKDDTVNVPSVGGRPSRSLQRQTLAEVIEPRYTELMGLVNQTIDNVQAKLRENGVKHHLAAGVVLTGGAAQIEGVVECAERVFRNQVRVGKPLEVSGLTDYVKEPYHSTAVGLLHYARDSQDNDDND
Description: FP; two-step model, first transition (FtsN binding).

For data set [6], the target named is T2, Vibrio maritimus FtsA residues 1-396 …. Description: AUC; two-step model, first transition (FtsN binding).
The target is the same in data set [7]. Description: AUC; two-step model, second transition (polymerisation).
The target is the same in data set [8]. Nature of the data set: FP; two-step model, second transition (polymerisation).
Data set [9] concerns the molecule itself. Nature of the data set: cryo-EM with 2D classification; EcFtsA at 0.15 mg/ml with 1 mM ATP on lipid monolayer, without FtsN peptide.
Data set [10] deals with the molecule itself. Description: co-sedimentation; co-pelleting: truncated FtsA at 1 mg/ml (~23 μM) with half, 1-, 3-, 6- or 10-fold molar FtsN peptide in binding buffer, 20°C, 20,000x g for 10 min, SDS-PAGE of supernatant and pellet.
[11] abbreviates: ftsA^3x HA, Q155C mutant, exponential phase cells in PBS on ice, 10 min.

“MAQRDYVRRSQPAPSAASASTSRKKQRNLPAV [EcFtsN^1-32, ΔRK2]”: the Kd on FtsA is roughly 166 µM.

Take `O=C1C=CC(=O)N1CCN1C(=O)C=CC1=O` [BMOE, bismaleimidoethane]: the “Covalent FtsA dimer after in vivo cross-linking, in words” value (“Covalent FtsA dimer” below) is “Signal for covalent FtsA dimers can be detected for both double cysteine mutants” in [1] (double cysteine mutants ftsA^3x HA, P98C, S118C and ftsA^3x HA, E199C, S252C); “but not with BMOE” in [1] (setting [11]). Broadly, the stoichiometry N is a count of units in the complex or per binding partner. Molecule “Vibrio maritimus FtsA residues 1-396 (VmFtsA^1-396) (domain or fragment)” yielded a stoichiometry N in [2] of 4. Moreover, the fold weaker for the first binding event than EcFtsA^1-405 with FtsN^(1-32-C-Atto 495) in [3] was 4 fold. As to “MAQRDYVRRSQPAPSRRKKSTSASAQRNLPAV [EcFtsN^1-32, ΔRK3]”, on FtsA, the Kd was roughly 80.6 µM. Regarding `Cc1c(CBr)n2c(CBr)c(C)c(=O)n2c1=O` [dBBr, dibromobimane], the “Covalent FtsA dimer” value in [1] (ftsA^3x HA, D123C mutant, exponential phase cells in PBS on ice, 10 min) is “Signal for a FtsA dimer can be detected”. For “Vibrio maritimus FtsN cytoplasmic peptide, residues 1-29 (VmFtsN^1-29)”, in data set [4], the fold weaker than the EcFtsA^1-405-EcFtsN^1-32 interaction was determined as 3 fold.

On to `O=C1C=CC(=O)N1CCCCCCN1C(=O)C=CC1=O` [BMH, bismaleimidohexane], for which the “Covalent FtsA dimer” value in data set [1] (setting [11]) was “FtsA dimers can be detected”. Take `O=C1C=CC(=O)N1CCCCN1C(=O)C=CC1=O` [BMB, 1,4-bismaleimidobutane]: the “Covalent FtsA dimer” value in data set [1] (setting [11]) is “FtsA dimers can be detected”.

B1: VmFtsN^1-29-C-Atto 495 (peptide)
chain: MANRDYVRRGKGTSRRPAKKKTSGKKPWRC
modifications: Atto 495 (maleimide) on the added C-terminal cysteine
Regarding B1, the Kd amounted to 0.062 µM in data set [5], 0.018 µM in data set [6], 55 µM in data set [7] and 10 µM in [8].

B2: E. coli FtsA (EcFtsA), full length (natural protein, UniProt P0ABH0 1-420, looked up)
chain: MIKATDRKLVVGLEIGTAKVAALVGEVLPDGMVNIIGVGSCPSRGMDKGGVNDLESVVKCVQRAIDQAELMADCQISSVYLALSGKHISCQNEIGMVPISEEEVTQEDVENVVHTAKSVRVRDEHRVLHVIPQEYAIDYQEGIKNPVGLSGVRMQAKVHLITCHNDMAKNIVKAVERCGLKVDQLIFAGLASSYSVLTEDERELGVCVVDIGGGTMDIAVYTGGALRHTKVIPYAGNVVTSDIAYAFGTPPSDAEAIKVRHGCALGSIVGKDESVEVPSVGGRPPRSLQRQTLAEVIEPRYTELLNLVNEEILQLQEKLRQQGVKHHLAAGIVLTGGAAQIEGLAACAQRVFHTQVRIGAPLNITGLTDYAQEPYYSTAVGLLHYGKESHLNGEAEVEKRVTASVGSWIKRLNSWLRKEF
notes: FtsA, E. coli, full length; also called WT; source: E. coli C41(DE3), purified (HisTrap, chitin resin with intein cleavage, SEC); not shown: intein-CBD-12H, C-terminal, cleaved
As for B2, the “stoichiometry N” value in [9] is 13 and 12.

B3: E. coli FtsA residues 1-405 (EcFtsA^1-405) (domain or fragment, UniProt P0ABH0 1-405, looked up)
chain: MIKATDRKLVVGLEIGTAKVAALVGEVLPDGMVNIIGVGSCPSRGMDKGGVNDLESVVKCVQRAIDQAELMADCQISSVYLALSGKHISCQNEIGMVPISEEEVTQEDVENVVHTAKSVRVRDEHRVLHVIPQEYAIDYQEGIKNPVGLSGVRMQAKVHLITCHNDMAKNIVKAVERCGLKVDQLIFAGLASSYSVLTEDERELGVCVVDIGGGTMDIAVYTGGALRHTKVIPYAGNVVTSDIAYAFGTPPSDAEAIKVRHGCALGSIVGKDESVEVPSVGGRPPRSLQRQTLAEVIEPRYTELLNLVNEEILQLQEKLRQQGVKHHLAAGIVLTGGAAQIEGLAACAQRVFHTQVRIGAPLNITGLTDYAQEPYYSTAVGLLHYGKESHLNGEAEVEKRVTASV
notes: also called C-terminally truncated FtsA; source: E. coli C41(DE3), purified (HisTrap, SUMO cleavage with GST-SENP1, SEC); not shown: 6H-SUMO, N-terminal, cleaved
For the molecule B3, the binding result in data set [10] is reported as “binds”.
